Source: patent US20220204611A1 (Amgen, published 2022)
Positions count from the first letter of the chain named. Blank lines part the entries; values can stand above or below the binder they belong to.

What was measured:
human TREM2 [1] = target: T1, human TREM2 (human, UniProt Q9NZC2 19-174, limits assumed); test: yeast-displayed Fab FACS, 2nd screen 2 nM
T1 sequence: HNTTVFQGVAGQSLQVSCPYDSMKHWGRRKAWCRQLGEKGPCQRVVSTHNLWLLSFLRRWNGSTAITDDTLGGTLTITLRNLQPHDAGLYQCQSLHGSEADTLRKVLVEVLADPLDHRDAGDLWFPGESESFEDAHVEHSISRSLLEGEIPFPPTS

human TREM2 [2] = target: T1, human TREM2; test: yeast-displayed Fab FACS, 1st screen 10 nM
human TREM2 [3] = target: T1, human TREM2; test: yeast-displayed Fab FACS, 2nd screen 10 nM
human TREM2 [4] = target: T1, human TREM2; test: yeast-displayed Fab FACS, 1st screen 110 nM
human TREM2 [5] = target: T1, human TREM2; test: yeast-displayed Fab FACS, 2nd screen 100 nM

B1: V65 (Fab, V domains shown)
VH: EVQLVQSGAEVKKPGESLKISCKGSGYSFTSYWIAWVRQMPGKGLEWMGIIYPGDSDTRYSPSFQGQVTISADKSISTAYLQWSSLKASDTAMYFCARSRTFYYDSSDYFDYWGQGTLVTVSS
VL: DIQMTQSPSSVSASVGDRVTITCRASQGISSWLAWYQQKPGKAPKLLIYAASSLQNGVPSRFSGSGSGTDFTLTISSLQPEDFATYFCQQADSFPRTFGQGTKLEIK
- binding signal fold over 6E7 parental (human TREM2 [1]): 1.29 fold
- binding signal fold over 6E7 parental (human TREM2 [2]): 2.05 fold
- binding signal fold over 6E7 parental (human TREM2 [3]): 2.75 fold

B4: V1 (Fab, V domains shown)
VH: B1 VH with Y32S
VL: B1 VL with Q55T, F94Y
- binding signal fold over 6E7 parental (human TREM2 [1]): 1.29 fold
- binding signal fold over 6E7 parental (human TREM2 [2]): 1.68 fold
- binding signal fold over 6E7 parental (human TREM2 [3]): 1.92 fold

B6: V2 (Fab, V domains shown)
VH: B1 VH with Y27S, S56G
VL: B1 VL with L54R, S93R
- binding signal fold over 6E7 parental (human TREM2 [1]): 2.23 fold
- binding signal fold over 6E7 parental (human TREM2 [2]): 2.55 fold
- binding signal fold over 6E7 parental (human TREM2 [3]): 2.9 fold

B8: V5 (Fab, V domains shown)
VH: B1 VH with I50T, S99Q
VL: B1 VL with F94H
- binding signal fold over 6E7 parental (human TREM2 [1]): 1.25 fold
- binding signal fold over 6E7 parental (human TREM2 [2]): 2.73 fold
- binding signal fold over 6E7 parental (human TREM2 [3]): 2.84 fold

B9: V4 (Fab, V domains shown)
VH: B1 VH with T30G, Y60V
VL: B1 VL with S53R, F94Y
- binding signal fold over 6E7 parental (human TREM2 [1]): 5.88 fold
- binding signal fold over 6E7 parental (human TREM2 [2]): 6 fold
- binding signal fold over 6E7 parental (human TREM2 [3]): 5.51 fold

B11: V13 (Fab, V domains shown)
VH: B1 VH with T30G, P62A, S99G
VL: B1 VL with N56G, F94M
- binding signal fold over 6E7 parental (human TREM2 [1]): 1.15 fold
- binding signal fold over 6E7 parental (human TREM2 [2]): 1.31 fold
- binding signal fold over 6E7 parental (human TREM2 [3]): 1.35 fold

B13: V3 (Fab, V domains shown)
VH: B1 VH with T30A, G66D, S99G
VL: B1 VL with L54R, S93R
- binding signal fold over 6E7 parental (human TREM2 [1]): 1.95 fold
- binding signal fold over 6E7 parental (human TREM2 [2]): 1.97 fold
- binding signal fold over 6E7 parental (human TREM2 [3]): 2.24 fold

Second part, the binder after the results:

- binding signal fold over 6E7 parental (human TREM2 [1]): 4.22 fold
- binding signal fold over 6E7 parental (human TREM2 [2]): 5.37 fold
- binding signal fold over 6E7 parental (human TREM2 [3]): 5.51 fold
B2: V17 (Fab, V domains shown)
VH: B1 VH with T30G
VL: B1 VL with L54R, F94S

- binding signal fold over 6E7 parental (human TREM2 [1]): 2.57 fold
- binding signal fold over 6E7 parental (human TREM2 [2]): 4.71 fold
- binding signal fold over 6E7 parental (human TREM2 [3]): 4.64 fold
B3: V14 (Fab, V domains shown)
VH: B1 VH with T30G, S56Q, S99G
VL: B1 VL with S53R

- binding signal fold over 6E7 parental (human TREM2 [1]): 3.57 fold
- binding signal fold over 6E7 parental (human TREM2 [2]): 4.01 fold
- binding signal fold over 6E7 parental (human TREM2 [3]): 4.04 fold
B5: V16 (Fab, V domains shown)
VH: B1 VH with F29M, S56G
VL: B1 VL with S53N

- binding signal fold over 6E7 parental (human TREM2 [1]): 1.42 fold
- binding signal fold over 6E7 parental (human TREM2 [2]): 2.64 fold
- binding signal fold over 6E7 parental (human TREM2 [3]): 2.9 fold
B7: V24 (Fab, V domains shown)
VH: B1 VH with T58V
VL: B1 VL with N56K, R96H

- binding signal fold over 6E7 parental (human TREM2 [1]): 4.72 fold
- binding signal fold over 6E7 parental (human TREM2 [2]): 5.23 fold
- binding signal fold over 6E7 parental (human TREM2 [3]): 4.78 fold
B10: V15 (Fab, V domains shown)
VH: B1 VH with T30A, I50T
VL: B1 VL with S53W, F94Y

- binding signal fold over 6E7 parental (human TREM2 [4]): 0.31 fold
- binding signal fold over 6E7 parental (human TREM2 [5]): 0.87 fold
B12: V94 (Fab, V domains shown)
VH: B1 VH with S99Q
VL: B1 VL with S52A
